# Laboratory results taken from the nanobody polyreactivity screen of Harvey et al. (2022).
# Experiment: yeast display, Sf9 membrane polyspecificity reagent, FACS + sequencing; frameworks hold sequencing errors
# In short: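 Sorting gates, low and high (top ~1%), were placed on anti-HA fluorescence to track expression and on streptavidin fluorescence to track reagent binding. A clone's polyreactivity label is taken from the gate it came out of. The reagent was 10% biotinylated, detergent-solubilized Sf9 membrane, applied for 1 hour at 4 °C to galactose-induced yeast display cells.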
row,Sequence,polyreactivity (PSR sort gate)
1,QVQLEESGGGLVQAGGSLRISCAASGRTFYVNAMGRSRQAPGKERELVAAIRYSDGRTYYADSVKGRFTISRDNAKNTVYLQMNSLKPEDTAVYYCAADTRFISRENYWGQGTQVTVSS,high polyreactivity
2,QVHLVESGGGLVQAGGSLRLSCAASGSIFKYNAMGWYRQSPGKERELVAAISSGGSTNYADSVKGRFTISRDNAKNTVYLQMNSLKPEDTAVYYCAKDRRRWYYTRDYWGQGTQVTVSS,low polyreactivity
3,QVQHVESRGGLVQAGGSLRLSCAASGSIFNPYDMGWYRPATGKDRELVAAIDWSGGSTYYADSVKGRFTISRDNAKNTVYLQMNSLKPEDSAVYYCAAGYGGWAWNHVSYGGDYWGQGTQVTVSS,low polyreactivity
4,QVQLVESGGGLLQAGGSLRLSCAASGRTFHLYAMGWYRQAPGKERELVAAIRGRSGSTYYADSVKGRFTISRDNAKNTVYLQMNSLKPEDTAVYYCAVGRYPYGSARYRFDYWGQGTQVTVSS,high polyreactivity
5,QVQLVESGGGLVQAGGSLRLSCAASGRIFSVYTMGWYRQAPGKERELVAGISRGGSTDYADSVKGRFTISRDNAKNTVYLQMNSLKPEDTAVYYCAATYTYRWYQFNFWGQGTQVTVSS,high polyreactivity
6,QVQLVESGGGLVQAGGSLRLSCAASGITFIRYAMGWYTQAPGKERELVAAIDRSGGSTYYADSVKGRFTISRDTAKNTVYLQMNSLKPEDTAVYYCAARRVRGLDYWGQGTQVTVSS,high polyreactivity
7,QVQLVESGGGLVQAGGSLRLSCAASGFIFQVYAMGWYRQAPGKERELVAGISRTGGSTYYADSVKGRFTISRDNAKNTVYLQMNSLKPEDTAVYYCAKPYWGYYGYFTHNYWGQGTQVTVSS,high polyreactivity
8,QVQLVESGGGLVQAGGSLRLSCAASGSIFESYVMGWYRQAPGKERELVAAISSGGSTYYADSVKGRFTISRDNAKNTVYLQMNSLKPEDTAVYYCAKRSHTYSVPGVYNEGDYWGQGTQVTVSS,low polyreactivity
9,QVQLVESGGGLVQAGGSLRLSCAASGRTFSTYAMGWYRQAPGKERELVAAITSSGTSTYYADSVKGRFTISRDNAKNTVYLQMNSLKPEDTAVYYCAAVTKRYLAYDYWGQGTQVTVSS,high polyreactivity
10,QVQLVESGGGFVQAGGSLRLSCAASGFTFRYYAMGWYRQAPGKERELVAAISRGGNTYYADSVKGRFTMSRDNAKNTVYLQMNSLKPEDTAVYFCNSAYLYIARHGYWGQGTQVTVSS,high polyreactivity
11,QVQLVESGGGLVQAGGSLRLSCAASGRTFPVYAMGRYRPAPGKERELVAAISWSGGTTYYADSVPGRFTISRDNAKNTVYLQKHSLKPEDTAVYFCAARFGVRRRYDYWGQGTQVTVSS,high polyreactivity
12,QVQLVESGGGLVQAGGSLRLSCAASGYIYLPYAMGWYRQAPGKERELVAAIRWSGGSTYYADSVKGRFTISRDNAKNTVYLQMNSLKPEDTAVYYCAAYYVARDRRYPKAYSYEYWGQGTQVTVSS,high polyreactivity
13,QVQLVESGGGLVQAGGSLRLSCAASGSTFFNYAMGWYRQAPGKERELVAAISSSGGRTYYADSVKGRFTISRDNAKNTVYLQMNSLKPEDTAVYYCAASGRKNGMNYWGQGTQVTVSS,high polyreactivity
14,QVQLVESGGGLVQAGGSLRLSCAAYGRIFDGNAMGWYRQAPGKERELVAAITSRGGRTYYADSVKGRFTISRDNAKNTVYLQMNSLKPEDTAVYYCNTRVKSYGHYDYWGQGTQVTVSS,high polyreactivity
15,QVQLVESGGGLVQAGGSLRLSCAASGIKLYYYAMGWYRQAPGKETEFVAAIAGSGGSTRYADSVKGRFTISRDNAKKTVYLQMNSLKPEDTAVYYFAARSRYGYITFDYWGQGTQVTVSS,high polyreactivity
16,QVQLVESGGGLVQAGGSLRLSCAASGSISQGNAMGWYRQAPGKERELVAAIRWTSGRTYYADSVKGRFTISRDNAKNTVSLEINSLKPEDPAVYYCAAYYVYYTPTLFDRDYWGQGTQVTVSS,low polyreactivity
17,QVQLVETGGGLVQAGGSLRLSCAASGFIFVLNAMGWDRQAPGKEMEFVAAITRSGGSTYYADSVKGRFTISRDNAKNNVYLPMNSLKPEVTAVYYCAVLYHSRDRYTYRDEDYWGQGTQVTVSS,low polyreactivity
18,QVQLVESGVGLVQAGGSLRLSCAASGITFPGYAMGWYRQAPGKERELVAVIRKSGTSTYYADSVKGRFTISRDNAKNTVYLQMNSLKPEDTAVYYCAAGGPSTLDDYWGQGTQVTVSS,low polyreactivity
19,QVQLVESGGGLGQAGGRLRLSCAASGRTFGYNAMGWYRQAPGKERELVAAISSGGSTNYADSVKGRFTISRDNAKNTVYLQMNSLKPEDTAVYYCAARRWRYVGTRYDYWGQGTQVTVSS,high polyreactivity
20,QVQLVESGGGLVQAGGSLRLSCAASGSTFRLYAMGWYRQAPGEERELVASITFSDSITSYADSVKGRFTISRDNAKNTVYLQMNSLKPEDTAVYYCDKDTSYENVVYTFDYDYWGQGTQVTVSS,low polyreactivity
21,QVQHVESGGGLVQAGGSLRLSCAASGSIFIPYAMGWSRQPPGKERELVAAISWSGSSTYYADSVKGRFTISRDNAKNTVYLQMISLKPEDTAVYYCAAYNAYRRGYDYWGQGTQVTVSS,high polyreactivity
22,QVQHVESVGGLVQAGGSLRLSCAPSGSIFWDNAMGWYRQAPGKERELVAAITSSGDTTYYADSVKGRFTISRDNAKNTVYLQMNSLKQEDTAVYYCAKVFGPTDYLTGTFKGDYWGQGTQVTVSS,low polyreactivity

row,Sequence,polyreactivity (PSR sort gate)
1,QVQLVESGGGLVQAGGSLRLICAASGSILNWYAMGWYRQAPGKERELVAAINRGTGTYYADSVKGRFTISRDNAKNTVYLQMISLKTEDTAVYYCAAEWYVYDFEFYYWGQGTQVTVSS,high polyreactivity
2,QVQLVESGGGLVQAGGSLRLSCAASGRIFPVYTMGWYRQAPGKERELVAAISGNGASTYYADSVKGRFTISRDNAKNTVYFHMNRLKPEYTAVYYCAAYFYYWGSTFVRYEYWGQGTQVTVSS,high polyreactivity
3,QVQLLESGGGLVQAGGSLRLSCAASGITFPYYAMGWYRQAPGKERELVAAISSSGGSTYYADSVKGRFTISRDIAKNTVYLQMNSLKPEDTAVYYCAAQRYINYDYWGQGTQVTVSS,high polyreactivity
4,QVQLVESGGGLVQAGGSLRLSCAASGSIFTPYAMGWYRQAPGKERELVADIDASGGGTYADSVKGRFTISRDNAKNTVYLQMNSLKPEDTAVYYCNTDPYSSAWYNYDYWGQGTQVTVSS,low polyreactivity
5,QVQLVESGGGLVQAGGSLRLSCAASGRTFQYYAMGWYRQAPGKERELGAAISGIGTSTSYADSVKGRFTISRDNAKNTVYLQMNSLKPEDTAVYYCAARLLVPGSPWYTNYYWGQGTQVTVSS,low polyreactivity
6,QVQLVESGGGLVHAGGSLRLSCAASGYTFQWYDMGWYRQAPGKERELVASISWRGGSTYYADSVKGRFTISRDHAKNTVYLQMNSLKPEDTAVYYCAASLWPDYEYDYWGQGTQVTVSS,low polyreactivity
7,QVQLVESGGGLVQAGGSLRLSCAASGYIFIFYAMGWYRQAPGKDRELVAAITDSGGSTYYADSVKGRFTISRDNAQNTVYLQKNSLKPEDTAVYYCADPYYFYRDRYRLDYWGQGTQVTVSS,low polyreactivity
8,QVQLVESGGGLVQAGGSLRLSCAASGRTFLRYARGWYRQAPGKERELVAAISWSGGRTYYADSVKGRFTISRDNAKNTVYLQMNSLKPEDTAVYYCNKVVLYGAHYYYWGQGTQVTVSS,high polyreactivity
9,QVQLVESGGGLVQAGGSLRLSCAASGIIFPIYAMGWYRQAPGPERELVAAIDINGGRTYYADSVKGRFTISRDNAKNTVYLPMNSLKPEDTAVYYCNAEGGSYARLYGNYEYWGQGTQVTVSS,low polyreactivity
10,QVQLEESGGGLVQAGGSLRLSCAASGFIFLLNFMGWYRQAPAKDRELVAGNRSSTASTYYADSVKGRFTISRDNAKNTFYLEMNCLKPEDTAVSYCAAVSGWQYEYYSWGQGTQVTVSS,low polyreactivity
11,QVQLVESGGGLVQAGGSLRLSCAASGRTFQWYAMGWYRQAPGKERELVAAITSGGNTYYADSVKGRFTISRDNAKNTVYLQMNSLKPEDTAVYYCFLFYSRSMGYWGQGTQVTVSS,high polyreactivity
12,QVQLVESGGGLVHAGGSLRLSCAASGFIFKRYTMGWYRQAPGKERELVATINWNGGNTYYADSVKGRFTISRDNAKNTVYLQMNSVKQDDTAVYYCAATRYVTYGSWGQGTQVTVSS,high polyreactivity
13,QVQLVESGGGLLQAGGSLRLSCAASGRTSVRYAMGWYRQAPGKERELVAAISWSGGSTYYADSVKGRFTISRDHAKNTVYLQMNCLKPEDTAVYYCNAQHARGYYYWGQGTQVTVSS,low polyreactivity
14,QVQLVESGGGLVQAGGSLRISCAASGSTITWYTMGWYRQAPGKERELVATIRKRGGSTYYADSVKGRFTISRDNAKNTVYLQMNSLKPEDTAVYYCNDTRLIYRFNPEEAGSTIPYDYWGQGTQVTVSS,high polyreactivity
15,QVQLVESGGGLVQAGGSLRLSCAASGYTFLDYAMAWYRQAPGKERELVAAINSGGSTYYADSVKGRFTISRDNAKNTVYLQMNSLKPEDTAVYYCAREDYVSYRLLYYLFDYWGQGTQVTVSS,low polyreactivity
16,QVQLVESGGGLVQAGGSLRLSCAASGSTFARYTMGWYRQAPGKERELVAAITSNGVSTYYADSVKGRFTISRDNAKNTVYLQMNSLKPEDTAVYYCAAEYRPRYKRIWVVTKDYWGQGTQVTVSS,low polyreactivity
17,QVQLVESGGGLVQAGGSLRLSCAASGFTFYSNAMGWYRQAPGKERELVAVINSDDDSTYYADSVKGRFTISRDNAKNTVYLQMNSLKPEDTAVYYCNKVWRVGKYPYSDRYYFGGGYWGQGTQVTVSS,high polyreactivity
18,QVQLVESGGGLVQAGGSLRLSCAASGSIFLRYAMGWYRQAPGKERELVAAITTGGGSTYYADSVKGRFTISRDNAKNTDYLQMNSLKPVDTAVYYCAKRAQYHWRGRDDYSYYYWGQGTQVTVSS,low polyreactivity
19,QVQLVESGGGLVQAGGTLRLSCAASGSIWRYAMGWYRKAPGKERELVATIARRGGSTYYADSVKGRFTISRDNAKNTVYLLMNSLKPEDPAVYYCAAAESASSFRFDYWGQGTQVTVSS,high polyreactivity
20,QVQLVESGGGLVQAGGSLRLSCAASGRTFYPYAMGWYRQAPGKERELVATITWSGTTTYYADSVKGRFTISRDNAKNIVYLQMNSLKPEDTAVYYCAADVWEVVTPYGTIDDDYWGQGTQVTVSS,high polyreactivity
21,QVQLVESGIGLVQAGGSLRLSCAASGSTCDFYAMGWYRPAPGKERELVAAITSDGRTNYADSVKGRFTISRDNAKNTVYLQMNSLKPEDTAVYYCAVTYGYEYDYWGQGTQVTVSS,low polyreactivity
